# Patent publication US20140141093A1 (DOMANTIS, published 2014)
# T1: TNFR1-FC fusion (human, UniProt P19438 30-211, limits assumed)
# T1 construct: not shown: Fc part (captured by goat anti-human IgG)
# T1 sequence (looked up): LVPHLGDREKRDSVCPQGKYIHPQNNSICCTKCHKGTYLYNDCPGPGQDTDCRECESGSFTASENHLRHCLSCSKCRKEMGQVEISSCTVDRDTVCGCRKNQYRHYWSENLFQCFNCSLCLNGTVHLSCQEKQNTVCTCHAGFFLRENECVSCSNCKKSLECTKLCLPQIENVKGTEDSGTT
# How the values were obtained:
# [1] = molecular target: T1, TNFR1-FC fusion; assay: human TNFR1 receptor binding assay: inhibition of TNF-alpha (10 ng/ml) binding to bead-captured TNFR1-Fc, four replicates
# [2] = molecular target: T2, human VEGF (human, UniProt P15692-4 27-191, biotinylated in selections and on the SA sensorchip); assay: RBA assay (footnote †); value read as that of the Fc fusion
# T2 construct: also called hVEGF; VEGFA
# T2 sequence (P15692 other isoform, or with tags, fused parts or gaps limits assumed): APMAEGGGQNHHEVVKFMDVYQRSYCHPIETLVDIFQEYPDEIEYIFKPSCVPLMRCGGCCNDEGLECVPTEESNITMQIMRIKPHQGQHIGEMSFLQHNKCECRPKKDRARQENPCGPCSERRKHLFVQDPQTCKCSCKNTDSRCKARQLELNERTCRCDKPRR
binder,measurement,setting,value
"DOM1h-131-206 (other, Human VH dAb against TNFR1; also called GSK1995057A) VH: EVQLLESGGGLVQPGGSLRLSCAASGFTFAHETMVWVRQAPGKGLEWVSHIPPDGQDPFYADSVKGRFTISRDNSKNTLYLQMNSLRAEDTAVYHCALLPKRGPWFDYWGQGTLVTVSS",IC50 (read off the curve),[1],~80 pM
"DOM15-10 Fc fusion (Fc fusion, also called DMS1546; not shown: short peptide linker and human IgG1 Fc) DIQMTQSPSSLSASVGDRVTITCRASQWIGPELSWYQQKPGKAPKLLIYHTSILQSGVPSRFSGSGSGTDFTLTISSLQPEDFATYYCQQYMFQPRTFGQGTKVEIRR","Activity (nM), RBA assay",[2],0.913 nM
